Source: publication PMC5814800

Target: T25-ϕC31 gp3 (wild type) fusion protein
Assay: bacterial two-hybrid (B2H) β-galactosidase assay
Settings: parent: est. 0.14; read off a plot

Row | response (ΔOD420/min/ml) | Substance
1 | 0.019 | wild-type ϕC31 integrase fused to T18 (Int-T18 fusion, pEY111) (from UniProt Q9T221) I420A
2 | 0.021 | wild-type ϕC31 integrase fused to T18 (Int-T18 fusion, pEY111) (from UniProt Q9T221) I420V; I582V
3 | 0.15 | wild-type ϕC31 integrase fused to T18 (Int-T18 fusion, pEY111) (from UniProt Q9T221) I582L
4 | 0.023 | wild-type ϕC31 integrase fused to T18 (Int-T18 fusion, pEY111) (from UniProt Q9T221) W526A

Continued, substance first:

Row | Substance | response (ΔOD420/min/ml)
5 | wild-type ϕC31 integrase fused to T18 (Int-T18 fusion, pEY111) (from UniProt Q9T221) I420A; I582T | -0.009
6 | wild-type ϕC31 integrase fused to T18 (Int-T18 fusion, pEY111) (from UniProt Q9T221) I420A; I582V | -0.016
7 | wild-type ϕC31 integrase fused to T18 (Int-T18 fusion, pEY111) (from UniProt Q9T221) I420V | 0.13
8 | wild-type ϕC31 integrase fused to T18 (Int-T18 fusion, pEY111) (from UniProt Q9T221) I582A | 0.027
9 | wild-type ϕC31 integrase fused to T18 (Int-T18 fusion, pEY111) (from UniProt Q9T221) I582G | 0.037
10 | wild-type ϕC31 integrase fused to T18 (Int-T18 fusion, pEY111) (from UniProt Q9T221) I582T | 0.068
11 | wild-type ϕC31 integrase fused to T18 (Int-T18 fusion, pEY111) (from UniProt Q9T221) I582V | 0.1
12 | wild-type ϕC31 integrase fused to T18 (Int-T18 fusion, pEY111) (from UniProt Q9T221) W526F | 0.21
13 | wild-type ϕC31 integrase fused to T18 (Int-T18 fusion, pEY111) (from UniProt Q9T221) W526R | 0.008
